Experimental data reported in the supplement of paper PMC10567573.

B1: SERPINB5 (parent)
chain: FPESETKECPFRVNKVCGAACSSK

Variants of: B1
Experiment: protein stability index of a GFP-peptide fusion (GPS, HEK-293T) (PSI 1-6); higher = more stable
Details: c terminus: a fixed tail appended
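Note: lentivirally expressed fusions sorted by FACS into six bins by GFP to DsRed ratio, PSI derived from sequencing read proportions per bin multiplied by bin number.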

Protein stability index of substitutions, site by site:
K15: P 2.58; Y 2.4; M 2.38; L 2.61; N 2.24; R 2.76; G 2.22; F 2.12
V16: Q 2.67; F 2.57; I 2.04; S 2.28
N14: Y 2.19; L 2.35; F 2.15; E 3.29
K24: F 2.02; I 1.88; P 2.21; M 2; S 2.25; W 1.46; Q 2.45; D 2.94
G18: Q 2.66; C 2.54; T 2.35; K 3.24; L 2.05; R 2.43; H 2.59
A20: F 1.95; V 2.67; Y 2.27; L 2.79; W 1.94; Q 2.09; E 2.84; D 2.69
C17: L 2.47; W 1.76; Q 2.4; M 2.49; A 3.29; T 2.68; F 2.79; V 2.88
C21: W 1.38; K 3.19; D 2.81; F 1.94; S 2.9; N 2.44
K7: F 1.89; H 3.36; P 2.76; M 2.5; L 2.5; N 3.05; I 2.55; E 2.78
E5: A 1.88; D 1.92; L 1.78; M 2.35; P 3.05; S 1.97
F11: H 5.17; K 5.11; I 4.74; P 4.96; V 4.25
P2: M 3.77; K 4.63; T 2.26; L 3.57; I 2.07; F 4.09; V 2.13; A 2.02
E8: S 2.14; C 2.23; A 2.25; I 2.13; N 2.17; H 2.14; D 2.16; M 1.86
A19: Y 2.29; L 2.96; R 2.52; W 2.08; K 2.51; T 2.62; H 2.51; E 2.5
S4: Q 3.83; T 3.34; E 4.53; G 2.25; Y 2.9; C 3.16; L 2.35; M 2.48; H 2.62
P10: V 3.05; Q 3.58; T 3.67; K 3.75; F 2.55; D 4.78; H 3.62; I 2.53; C 3.05; E 4.31
C9: F 1.81; N 3; P 4.51; K 4.37; H 1.83; T 2.64; Q 4.03; L 3.6; Y 2.92
S22: G 3.07; Q 2.66; R 2.36; C 2.27; Y 2.46; P 2.67; E 2.57; L 1.93
R12: F 3.56; G 4.11; H 3.83; P 4.75; T 3.84
T6: F 2.23; A 2.68; C 2.38; P 2.91; K 2.28
F1: W 3.85; S 5.08; N 4.61; C 4.63; D 5.41; M 4.85; P 4.52; Y 3.41
S23: N 2.96; F 2.23; Q 2.35; L 2.4; M 2.39; P 2.39; W 1.93
V13: A 3.14; D 4.31; P 3.02; Y 2.03
E3: M 1.45; L 1.43; Q 1.75; S 1.47; N 2.4; Y 1.53
